Experimental data published in patent US20260001953A1 (TWIST BIOSCIENCE, published 2026).
Substitutions are numbered along the chain they refer to.

T1: SIGLEC-5 (limits assumed)
T1 construct: also called OB-BP-2
T1 receptor: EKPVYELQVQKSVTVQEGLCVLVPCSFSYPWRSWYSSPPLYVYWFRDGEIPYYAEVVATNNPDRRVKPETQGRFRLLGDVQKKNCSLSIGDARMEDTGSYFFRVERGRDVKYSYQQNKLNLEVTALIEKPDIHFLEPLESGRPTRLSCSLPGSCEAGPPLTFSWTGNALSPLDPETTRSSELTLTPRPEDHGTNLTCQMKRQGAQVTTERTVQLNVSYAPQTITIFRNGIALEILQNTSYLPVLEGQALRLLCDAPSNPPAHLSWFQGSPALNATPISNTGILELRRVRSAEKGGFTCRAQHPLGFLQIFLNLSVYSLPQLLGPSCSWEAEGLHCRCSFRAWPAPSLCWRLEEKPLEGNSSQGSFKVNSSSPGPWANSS

T2: mouse CD117 (mouse, UniProt P05532)
T2 construct: antigen of the Carterra SPR kinetics; also called murine CD117
T2 sequence (receptor, looked up): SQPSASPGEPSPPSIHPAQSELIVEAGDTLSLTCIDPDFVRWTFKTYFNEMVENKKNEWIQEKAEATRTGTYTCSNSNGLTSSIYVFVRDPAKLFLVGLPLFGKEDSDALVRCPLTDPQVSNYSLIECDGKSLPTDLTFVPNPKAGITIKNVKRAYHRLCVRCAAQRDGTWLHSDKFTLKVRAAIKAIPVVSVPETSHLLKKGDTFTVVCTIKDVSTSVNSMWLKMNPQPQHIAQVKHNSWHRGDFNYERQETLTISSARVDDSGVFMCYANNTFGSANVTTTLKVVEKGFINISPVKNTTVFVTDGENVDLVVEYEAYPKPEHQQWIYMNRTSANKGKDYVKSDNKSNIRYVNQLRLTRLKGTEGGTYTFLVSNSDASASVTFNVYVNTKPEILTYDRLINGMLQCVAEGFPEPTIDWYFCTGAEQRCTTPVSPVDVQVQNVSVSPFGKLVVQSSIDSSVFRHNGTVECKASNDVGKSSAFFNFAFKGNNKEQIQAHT

B1: SIGLEC-8-40 (antibody, human IgG1, kappa, V domains shown)
VH: EVQLLESGGGLVQPGGSLRLSCAASGFTFSFFDMMWVRQAPGKGLEWVSQISETGRRTYYADSVKGRFTISRDNSKNTLYLQMNSLRAEDTAVYYCATAEDEQGYDYWGQGTLVTVSS
VL: DIQMTQSPSSLSASVGDRVTITCRASQSINFWLRWYQQKPGKAPKLLIYGTTSLESGVPSRFSGSGSGTDFTLTISSLQPEDFATYYCQQTATWPFTFGQGTKVEIKR
notes: tested as expressed and purified mAb; also called SIBLEC8-40
B2: CD117-6 (antibody, human IgG1, kappa, V domains shown)
VH: EVQLLESGGGLVQPGGSLRLSCAASGFTFSAYALTWVRQAPGKGLEWVSAISSSGGSTFYADSVKGRFTISRDNSKNTLYLQMNSLRAEDTAVYYCARVSRGYPRRSDSWGQGTLVTVSS
VL: DIQMTQSPSSLSASVGDRVTTTCRASQGISTYLNWYQQKPGKAPKLLIYGASRLQGGVPSRFSGSGSGTDFTLTISSLQPEDFATYYCQQGYSFPWTFGGGTKVEIKR
notes: detected with anti-human IgG in FACS
B3: SIGLEC-8-1 (antibody, human IgG1, kappa, V domains shown)
VH: EVQLLESGGGLVQPGGSLRLSCAASGFTFSNFPMSWVRQAPGKGLEWVSSISGTGSSTYYADSVKGRFTISRDNSKNTLYLQMNSLRAEDTAVYYCVREGRYFYYAMDVWGQGTLVTVSS
VL: DIQMTQSPSSLSASVGDRVTITCRASQNIAGYLNWYQQKPGKAPKLLIYAASNLHTGVPSRFSGSGSGTDFTLTISSLQPEDFATYYCQQSYSTPLAFGGGTKVEIKR
notes: tested as expressed and purified mAb
B4: SIGLEC-8-58 (antibody, human IgG1, kappa, V domains shown)
VH: EVQLLESGGGLVQPGGSLRLSCAASGFTFRTSAMSWVRQAPGKGLEWVSSVSGSGSSTYYADSVKGRFTISRDNSKNTLYLQMNSLRAEDTAVYYCAKEGSYYYYGMDVWGQGTLVTVSS
VL: B3 VL with N28T, A30G, G31R, A50G, N53S, H55Y, T56S, S93K, L96V, A97T
notes: as for B3
B5: CD117-1 (antibody, human IgG1, kappa, V domains shown)
VH: EVQLLESGGGLVQPGGSLRLSCAASGFTLTSYAMSWVRQAPGKGLEWVSTISGSGGYTYYADSVKGRFTISRDNSKNTLYLQMNSLRAEDTAVYYCARDSGYDRGLDYWGQGTLVTVSS
VL: DIQMTQSPSSLSASVGDRVTITCRASQSVRTYLNWYQQKPGKAPKLLIYDASTLQSGVPSRFSGSGSGTDFTLTISSLQPEDFATYYCQQSYSSSITFGGGTKVEIKR
notes: as for B2
B6: SIGLEC-8-44 (antibody, human IgG1, kappa, V domains shown)
VH: EVQLLESGGGLVQPGGSLRLSCAASGFTISSSAMTWVRQAPGKGLEWVSSISGGGGTTYYADSVKGRFTISRDNSKNTLYLQMNSLRAEDTAVYYCAREGAGYYYGMDVWGQGTLVTVSS
VL: B3 VL with N28S, A30G, G31N, N53R, H55Q, T56G, A97S
notes: as for B3
B7: CD117-7 (antibody, human IgG1, kappa, V domains shown)
VH: EVQLLESGGGLVQPGGSLRLSCAASGFTFSDYAMGWVRQAPGKGLEWVSGIGGSGGSAYYADSVKGRFTISRDNSKNTLYLQMNSLRAEDTAVYYCARGFDSTDGVDYWGQGTLVTVSS
VL: B3 VL with N28S, A30G, G31N, N53D, H55Q, S91G, L96Y, A97T
notes: as for B2
B8: CD117-14 (antibody, human IgG1, kappa, V domains shown)
VH: B7 VH
VL: DIQMTQSPSSLSASVGDRVTITCQTSQSVSSYLNWYQQKPGKAPKLLIYGASRLESGVPSRFSGSGSGTDFTLTISSLQPEDFATYYCQQSYKTPWTFGGGTKVEIKR
notes: as for B2

Assays:
[1] = target: T3, Sialic acid-binding immunoglobulin-like lectin 8 (SIGLEC-8), antigen of the Carterra SPR studies (UniProt Q9NYZ4 17-363, limits assumed); experiment: Carterra SPR
Procedure, shortened: (§1)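 Values are rate constants or dissociation constants for antibodies binding SIGLEC-8, measured by surface plasmon resonance on a Carterra instrument. The antibodies were drawn from synthetic libraries through four rounds of bead-based panning. Clones picked by clonal ELISA were expressed and purified prior to measurement.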

[2] = target: T3, Sialic acid-binding immunoglobulin-like …; experiment: Carterra SPR kinetics, sensorgram panel
Procedure, shortened: as §1

[3] = target: T4, SIGLEC-8 transiently expressed on cells (UniProt Q9NYZ4 17-499, limits assumed); experiment: cell binding titration, transient SIGLEC-8 line
T4 construct: whole, on cells; Two cassettes are described (P2A mVenus and direct mVenus fusion); also called the transient line; pTT5-SIGLEC-8 P2A mVenus

[4] = target: T3, Sialic acid-binding immunoglobulin-like …; experiment: Carterra SPR kinetics, summary table
Procedure, shortened: as §1

[5] = target: CD117-GFP transiently overexpressed in HEK293T cells (UniProt P10721 26-976); experiment: cell-based or functional assay
[6] = target: T5, CD117 transiently expressed on Expi293 cells (UniProt P10721 26-976, limits assumed); experiment: FACS cell binding, Expi293 transiently expressing CD117
T5 construct: whole, on cells; Two cassettes are described (P2A mVenus and direct mVenus fusion); also called CD117 transient cells; the transient cell line
Procedure: (§2) The transient expression of CD117 was validated with a control antibody, Expi293 (FIGS. 17A-17B). Expi293, […], was transiently transfected with CD117 48-hours post-transfection. The secondary antibody used was APC Goat anti-human IgG (diluted 1:400). 100,000 cells per well were blocked with 1×PBS+0.5% BSA for 1 hour, stained with 100 μL of the primary antibody for 1 hour, and stained with the secondary antibody for one hour, all with 3× washes in between each staining.

[7] = target: T4, SIGLEC-8 transiently expressed on cells; experiment: flow cytometry titration on cells transiently expressing SIGLEC-8 and on parental Expi293
SIGLEC-2 = target: T6, SIGLEC-2; experiment: SPR cross-reactivity table
T6 construct: also called CD22
Procedure, shortened: (§3)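 Values are dissociation constants or binding results, one per protein tested, from surface plasmon resonance run on a Carterra instrument. The antibodies, raised against SIGLEC-8, were assessed for cross-reactivity with related SIGLEC proteins. They had been selected from synthetic libraries over four rounds of bead-based panning, screened by clonal ELISA, then expressed and purified.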

SIGLEC-3 = target: T7, SIGLEC-3; experiment: SPR cross-reactivity table
T7 construct: also called CD33
Procedure, shortened: as §3

SIGLEC-6 = target: T8, SIGLEC-6; experiment: SPR cross-reactivity table
T8 construct: also called OB-BP-1
Procedure, shortened: as §3

SIGLEC-7 = target: T9, SIGLEC-7; experiment: SPR cross-reactivity table
T9 construct: also called p75/AIRM1
Procedure, shortened: as §3

SIGLEC-5 = target: T1, SIGLEC-5; experiment: SPR cross-reactivity table
Procedure, shortened: as §3

mouse CD117 = target: T2, mouse CD117; experiment: Carterra SPR, mouse CD117
Procedure: (§4) To further evaluate the antibodies discovered during the screens, 21 clones were selected for detailed characterization and were analyzed for target binding kinetics by a Carterra SPR instrument. The binding kinetics of the anti-CD117 antibodies for human CD117, cynomolgus monkey CD117, and murine CD117 are shown in FIG. 29A-29B.

[8] = target: T10, Cluster of differentiation 117 (CD117), antigen of epitope binning and ELISA (UniProt P10721 26-520, limits assumed); experiment: Carterra SPR, human CD117
T10 construct: also called tyrosine-protein kinase KIT; mast/stem cell growth factor receptor (SCFR)
Procedure: as §4

[9] = target: T5, CD117 transiently expressed on Expi293 …; experiment: FACS, MFI expressing / parental cells
Procedure: as §2

cyno CD117 = target: T11, cyno CD117 (Macaca fascicularis, UniProt A0A7N9CP24); experiment: Carterra SPR, cyno CD117
T11 construct: antigen of the Carterra SPR kinetics; also called cynomolgus monkey CD117
Procedure: as §4

T3 sequence (Q9NYZ4 17-363 limits assumed): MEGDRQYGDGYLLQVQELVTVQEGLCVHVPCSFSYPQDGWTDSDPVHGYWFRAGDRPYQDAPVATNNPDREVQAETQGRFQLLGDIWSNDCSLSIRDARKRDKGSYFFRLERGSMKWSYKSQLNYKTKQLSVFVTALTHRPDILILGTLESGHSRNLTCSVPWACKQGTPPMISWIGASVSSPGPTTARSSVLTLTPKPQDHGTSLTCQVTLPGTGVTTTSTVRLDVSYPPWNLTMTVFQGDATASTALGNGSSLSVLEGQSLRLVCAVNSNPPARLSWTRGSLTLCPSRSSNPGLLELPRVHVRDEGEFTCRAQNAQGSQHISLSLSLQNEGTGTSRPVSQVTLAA
T8 sequence (receptor, as listed by the source limits assumed): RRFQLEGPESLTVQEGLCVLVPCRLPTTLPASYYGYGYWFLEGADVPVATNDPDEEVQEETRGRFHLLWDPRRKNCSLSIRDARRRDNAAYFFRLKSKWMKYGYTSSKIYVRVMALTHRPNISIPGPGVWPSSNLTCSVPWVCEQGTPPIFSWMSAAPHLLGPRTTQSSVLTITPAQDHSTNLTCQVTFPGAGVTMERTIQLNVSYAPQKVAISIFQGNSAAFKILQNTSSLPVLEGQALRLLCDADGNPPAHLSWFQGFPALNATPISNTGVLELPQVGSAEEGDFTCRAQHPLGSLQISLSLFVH
T5 sequence (P10721 26-976 limits assumed): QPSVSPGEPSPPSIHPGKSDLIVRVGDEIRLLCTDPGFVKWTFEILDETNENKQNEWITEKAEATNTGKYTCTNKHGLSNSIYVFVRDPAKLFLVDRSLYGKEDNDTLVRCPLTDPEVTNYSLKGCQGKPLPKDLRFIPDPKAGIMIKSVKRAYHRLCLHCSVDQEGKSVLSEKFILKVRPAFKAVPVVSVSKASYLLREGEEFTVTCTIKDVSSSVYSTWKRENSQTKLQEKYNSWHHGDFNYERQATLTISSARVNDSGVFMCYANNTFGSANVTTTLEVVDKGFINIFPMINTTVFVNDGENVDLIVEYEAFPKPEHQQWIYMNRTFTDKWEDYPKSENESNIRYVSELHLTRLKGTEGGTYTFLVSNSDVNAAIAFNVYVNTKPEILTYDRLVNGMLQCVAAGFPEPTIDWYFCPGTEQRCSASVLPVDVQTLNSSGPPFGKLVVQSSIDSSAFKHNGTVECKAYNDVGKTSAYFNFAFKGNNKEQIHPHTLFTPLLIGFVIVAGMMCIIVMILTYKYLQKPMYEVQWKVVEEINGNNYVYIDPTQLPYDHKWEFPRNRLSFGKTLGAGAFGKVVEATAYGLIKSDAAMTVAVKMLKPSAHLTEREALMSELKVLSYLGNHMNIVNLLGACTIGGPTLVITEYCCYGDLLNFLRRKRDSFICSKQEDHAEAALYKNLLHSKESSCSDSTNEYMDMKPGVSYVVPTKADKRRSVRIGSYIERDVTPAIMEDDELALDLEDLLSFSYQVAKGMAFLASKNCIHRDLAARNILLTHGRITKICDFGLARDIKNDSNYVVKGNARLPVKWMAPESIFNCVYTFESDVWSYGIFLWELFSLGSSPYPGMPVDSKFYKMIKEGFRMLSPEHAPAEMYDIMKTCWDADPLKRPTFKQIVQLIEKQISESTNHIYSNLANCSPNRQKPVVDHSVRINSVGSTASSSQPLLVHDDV
T7 sequence (receptor, as listed by the source limits assumed): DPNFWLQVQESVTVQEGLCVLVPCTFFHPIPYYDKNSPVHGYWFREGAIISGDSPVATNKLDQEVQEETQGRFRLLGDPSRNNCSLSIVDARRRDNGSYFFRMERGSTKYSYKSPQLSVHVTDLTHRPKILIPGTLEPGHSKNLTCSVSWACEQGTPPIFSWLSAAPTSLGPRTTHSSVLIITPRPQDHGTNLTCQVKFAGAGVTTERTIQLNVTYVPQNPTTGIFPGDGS
T10 sequence (P10721 26-520 limits assumed): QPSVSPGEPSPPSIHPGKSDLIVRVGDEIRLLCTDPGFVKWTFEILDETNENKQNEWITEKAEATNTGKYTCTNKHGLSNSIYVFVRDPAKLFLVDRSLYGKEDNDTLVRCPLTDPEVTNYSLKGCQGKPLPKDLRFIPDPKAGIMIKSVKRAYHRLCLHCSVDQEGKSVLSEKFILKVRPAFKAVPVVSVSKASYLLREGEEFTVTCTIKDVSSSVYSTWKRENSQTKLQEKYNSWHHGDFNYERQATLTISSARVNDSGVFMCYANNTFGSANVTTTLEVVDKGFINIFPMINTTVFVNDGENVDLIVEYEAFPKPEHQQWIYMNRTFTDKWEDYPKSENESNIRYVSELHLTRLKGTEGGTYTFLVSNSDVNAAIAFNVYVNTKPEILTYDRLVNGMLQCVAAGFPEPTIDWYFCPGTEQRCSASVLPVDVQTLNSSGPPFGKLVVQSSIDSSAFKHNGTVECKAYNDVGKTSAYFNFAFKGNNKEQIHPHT
T9 sequence (receptor, as listed by the source limits assumed): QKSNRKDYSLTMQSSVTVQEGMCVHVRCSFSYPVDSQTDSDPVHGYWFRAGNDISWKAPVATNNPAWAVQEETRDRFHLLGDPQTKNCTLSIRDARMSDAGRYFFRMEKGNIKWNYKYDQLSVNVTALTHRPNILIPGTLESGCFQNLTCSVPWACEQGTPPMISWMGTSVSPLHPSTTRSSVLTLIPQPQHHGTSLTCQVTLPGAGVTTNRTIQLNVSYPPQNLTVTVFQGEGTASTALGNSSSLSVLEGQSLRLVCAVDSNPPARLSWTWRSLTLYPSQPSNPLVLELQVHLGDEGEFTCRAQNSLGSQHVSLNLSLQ
T6 sequence (chain, as listed by the source limits assumed): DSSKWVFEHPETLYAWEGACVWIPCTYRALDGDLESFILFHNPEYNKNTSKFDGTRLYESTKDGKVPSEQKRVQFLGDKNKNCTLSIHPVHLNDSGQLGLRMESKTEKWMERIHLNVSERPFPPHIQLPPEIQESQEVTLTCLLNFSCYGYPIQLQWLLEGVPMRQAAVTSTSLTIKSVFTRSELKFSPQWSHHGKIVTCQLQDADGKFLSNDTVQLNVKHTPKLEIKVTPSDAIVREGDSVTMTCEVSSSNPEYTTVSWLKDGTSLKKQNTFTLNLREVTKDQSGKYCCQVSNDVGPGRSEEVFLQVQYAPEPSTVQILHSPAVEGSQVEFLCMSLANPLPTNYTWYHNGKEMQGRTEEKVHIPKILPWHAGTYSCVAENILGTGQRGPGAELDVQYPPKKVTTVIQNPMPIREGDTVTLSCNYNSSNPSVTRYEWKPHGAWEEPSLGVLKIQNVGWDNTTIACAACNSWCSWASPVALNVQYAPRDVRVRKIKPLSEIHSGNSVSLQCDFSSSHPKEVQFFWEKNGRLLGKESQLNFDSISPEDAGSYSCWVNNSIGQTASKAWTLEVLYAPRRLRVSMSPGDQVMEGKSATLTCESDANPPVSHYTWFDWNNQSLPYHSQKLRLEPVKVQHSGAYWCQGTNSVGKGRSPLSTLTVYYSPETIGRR
T11 sequence (A0A7N9CP24 entry or part of it): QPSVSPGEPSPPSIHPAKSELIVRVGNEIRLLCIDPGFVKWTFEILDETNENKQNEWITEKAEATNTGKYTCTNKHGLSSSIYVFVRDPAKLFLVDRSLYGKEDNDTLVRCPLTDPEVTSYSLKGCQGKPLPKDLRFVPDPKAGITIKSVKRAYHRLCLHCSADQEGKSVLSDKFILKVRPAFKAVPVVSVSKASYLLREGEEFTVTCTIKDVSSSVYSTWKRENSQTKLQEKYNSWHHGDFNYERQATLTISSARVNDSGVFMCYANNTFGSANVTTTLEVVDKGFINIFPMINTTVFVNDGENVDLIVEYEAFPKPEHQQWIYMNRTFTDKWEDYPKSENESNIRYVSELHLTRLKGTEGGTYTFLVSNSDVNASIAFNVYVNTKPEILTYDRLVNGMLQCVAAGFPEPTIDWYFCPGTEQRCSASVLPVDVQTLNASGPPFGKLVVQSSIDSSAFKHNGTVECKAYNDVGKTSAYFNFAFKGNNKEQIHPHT
T4 sequence (Q9NYZ4 17-499 limits assumed): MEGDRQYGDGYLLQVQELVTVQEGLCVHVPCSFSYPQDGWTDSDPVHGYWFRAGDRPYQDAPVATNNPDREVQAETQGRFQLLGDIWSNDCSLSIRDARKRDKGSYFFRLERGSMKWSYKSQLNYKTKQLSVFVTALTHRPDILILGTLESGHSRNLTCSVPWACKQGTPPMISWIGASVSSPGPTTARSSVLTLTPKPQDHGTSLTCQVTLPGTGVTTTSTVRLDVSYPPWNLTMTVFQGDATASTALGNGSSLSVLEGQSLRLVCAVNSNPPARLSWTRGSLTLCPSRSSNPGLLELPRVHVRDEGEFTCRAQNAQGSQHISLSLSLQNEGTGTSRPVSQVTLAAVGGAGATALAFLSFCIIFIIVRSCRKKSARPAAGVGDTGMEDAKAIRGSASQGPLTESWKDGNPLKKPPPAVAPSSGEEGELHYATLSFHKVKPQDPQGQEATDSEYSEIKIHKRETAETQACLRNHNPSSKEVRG

| Binder | Kd [1] [nM] | EC50 [3] [nM] | koff [4] [s⁻¹] | kon [4] [M⁻¹ s⁻¹] | EC50 [6] [nM] | Kd (SIGLEC-5) [nM] | binding result (mouse CD117) | Kd [8] [nM] | koff [8] [s⁻¹] | kon [8] [M⁻¹ s⁻¹] | MFI Ratio [9] | Kd (cyno CD117) [nM] | koff (cyno CD117) [s⁻¹] | kon (cyno CD117) [M⁻¹ s⁻¹] | other results |
| --- | --- | --- | --- | --- | --- | --- | --- | --- | --- | --- | --- | --- | --- | --- | --- |
| B1 | 0.0225 | 0.609 | 1e-05 | 444000 |  |  |  |  |  |  |  |  |  |  | Kd [2]: < 0.023 nM |
| B2 |  |  |  |  | 0.116 |  |  |  |  |  |  |  |  |  | IC50, inhibition of the SCF-stimulated SRF reporter signal (FFLuc/RLuc); same row prints log(IC50) -8.147 and Span -0.2026 [5]: 7.13e-09 M |
| B3 | 0.292 | 1.26 | 4.38e-05 | 150000 |  | 5.8 |  |  |  |  |  |  |  |  | EC50 (read off the curve) [7]: ~5 nM; Kd (SIGLEC-2): 196 nM; Kd (SIGLEC-3): 135 nM; Kd (SIGLEC-6): 7 nM; Kd (SIGLEC-7): 5240 nM |
| B4 | 0.97 | 0.914 | 0.000127 | 131000 |  | 169 |  |  |  |  |  |  |  |  | binding result (SIGLEC-2): no binding; binding result (SIGLEC-3): no binding; binding result (SIGLEC-6): no binding; binding result (SIGLEC-7): no binding |
| B5 |  |  |  |  | 23.8 |  | no binding | 189 | 0.1 | 530000 | 26.6 | 508 | 0.16 | 315000 | IC50, inhibition of the SCF-stimulated SRF reporter signal (FFLuc/RLuc); same row prints log(IC50) -9.366 and Span -0.2174 [5]: 4.31e-10 M |
| B6 | 0.517 | 1.07 | 0.000138 | 267000 |  | 6.7 |  |  |  |  |  |  |  |  | binding result (SIGLEC-2): no binding; binding result (SIGLEC-3): no binding; Kd (SIGLEC-6): 35.2 nM; binding result (SIGLEC-7): no binding |
| B7 |  |  |  |  | 4.01 |  | no binding | 22 | 0.0194 | 882000 | 21.9 | 14.2 | 0.0159 | 1.12e+06 | IC50, inhibition of the SCF-stimulated SRF reporter signal (FFLuc/RLuc); same row prints log(IC50) -9.451 and Span -0.1049 [5]: 3.54e-10 M |
| B8 |  |  |  |  | 0.0718 |  | no binding | 2.53 | 0.00177 | 698000 | 12.2 | 2.34 | 0.00146 | 624000 | IC50, inhibition of the SCF-stimulated SRF reporter signal (FFLuc/RLuc); same row prints log(IC50) -9.67 and Span -0.1208 [5]: 2.14e-10 M |
